Columns and labels:
[1] = molecular target: fCK18 in apoptosis-induced HepG2 cell culture supernatant (human) (UniProt P05783); experiment: commercial fCK18 kit ELISA with M30 conjugate; fCK18 6.79 ng/mL
[2] = molecular target: fCK18 in apoptosis-induced HepG2 cell culture supernatant (human) (UniProt P05783); experiment: commercial fCK18 kit ELISA with M30 conjugate; fCK18 2.23 ng/mL
[3] = molecular target: fCK18 in apoptosis-induced HepG2 cell culture supernatant (human) (UniProt P05783); experiment: commercial fCK18 kit ELISA with M30 conjugate; fCK18 60.73 ng/mL
[4] = molecular target: fCK18 in apoptosis-induced HepG2 cell culture supernatant (human) (UniProt P05783); experiment: commercial fCK18 kit ELISA with M30 conjugate; fCK18 182.28 ng/mL
[5] = molecular target: fCK18 in apoptosis-induced HepG2 cell culture supernatant (human) (UniProt P05783); experiment: commercial fCK18 kit ELISA with M30 conjugate; fCK18 0.74 ng/mL
[6] = molecular target: fCK18 in apoptosis-induced HepG2 cell culture supernatant (human) (UniProt P05783); experiment: commercial fCK18 kit ELISA with M30 conjugate; fCK18 20.27 ng/mL
[7] = molecular target: fCK18 in apoptosis-induced HepG2 cell culture supernatant (human) (UniProt P05783); experiment: commercial fCK18 kit ELISA with M30 conjugate; fCK18 0.28 ng/mL
[8] = molecular target: fCK18 in apoptosis-induced HepG2 cell culture supernatant (human) (UniProt P05783); experiment: commercial fCK18 kit ELISA with M30 conjugate; fCK18 0.09 ng/mL
[9] = molecular target: fCK18 in apoptosis-induced HepG2 cell culture supernatant (human) (UniProt P05783); experiment: commercial fCK18 kit ELISA with M30 conjugate

Sequence of fCK18 in apoptosis-induced HepG2 cell culture supernatant (human) (P05783 239-397): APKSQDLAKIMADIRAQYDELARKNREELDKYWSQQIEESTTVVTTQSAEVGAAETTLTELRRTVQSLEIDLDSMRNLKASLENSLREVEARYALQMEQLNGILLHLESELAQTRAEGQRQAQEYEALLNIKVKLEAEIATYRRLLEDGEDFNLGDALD

S/N ratio [1]: 5.1 | S/N ratio [2]: 2.4 | S/N ratio [3]: 37.5 | S/N ratio [4]: 48.3 | S/N ratio [5]: 1.5 | S/N ratio [6]: 12.8 | S/N ratio [7]: 1.2 | S/N ratio [8]: 1.1 | fCK18 concentration detectable (S/N ratio of 2 or more) [9]: > 2.23 ng/mL
Substance: M30 antibody
